US7422862B2, “Methods for identifying modulators of apoptosis” (The Burnham Institute, priority 2001, dated 2008)
No end group written: not given here.

Assays:
[1] = target: Bcl-XL (Homo sapiens, UniProt Q07817); assay: Fluorescence polarization assay, Bcl-XL specificity control; format: binding
[2] = target: T1, BaxΔTM (Homo sapiens, UniProt Q07812); assay: Co-immunoprecipitation of BaxΔTM with GFP-TM(Bax); format: binding; settings: lysates pre-incubated with peptide
T1 construct: a C-terminally truncated Bax protein (residues 1-169) (BaxΔTM); expressed in transfected cells; host or cells: HEK293T (lysates mixed in vitro)
T1 sequence (Q07812 1-169, stated change not applied): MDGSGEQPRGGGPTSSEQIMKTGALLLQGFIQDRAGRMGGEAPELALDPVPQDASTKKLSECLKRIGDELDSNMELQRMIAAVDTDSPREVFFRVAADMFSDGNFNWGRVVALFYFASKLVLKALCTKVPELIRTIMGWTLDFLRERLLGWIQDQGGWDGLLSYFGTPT
T1 sequence (Q07812 170-192 partner limits assumed): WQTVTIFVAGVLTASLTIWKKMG
Method: (§1) (A-B) Humanin peptide prevents STS-induced Bax translocation in vivo. Cos-7 cells were first transfected with GFP-Bax plasmids. After 24 hrs, untagged wild-type or C8P mutant Humanin peptides were introduced into cells using ChariotTM reagent, and 2 h later cells were treated with 1 μM STS. After 4 h, the percentage of cells with translocated Bax was determined (mean±SD; n=3) by confocal microscopy (A) and representative photomicrographs (B). (C) Wild-type or C8P mutant Humanin peptides were introduced into Cos7 cells using ChariotTM reagent. Cytosolic (C) and mitochondria-containing (M) fractions were isolated by differential centrifugation 23 and analyzed by immunoblotting using anti-Bax (top), Hsp60 (middle) (mitochondrial marker), or Tubulin (bottom) (cytosol marker) antibodies. (D) HN or mutant control double-strand siRNAs were transfected into SF268 cells. After 48 h, cells were cultured without (Control) or with 0.1 uM STS. After 24 hr, cells were fractionated and analyzed by immunoblotting as above. (E) Isolated mitochondria were mixed with 400 ng Bax protein, with or without preincubating Bax with 100 uM Humanin or Humanin(C8P) peptides for 10 min. After 3 h at 30° C., mitochondria were centrifuged and the resulting pellets (P) and supernatants (S) were analyzed by immunoblotting using anti-Cytochrome c (top), Hsp60 (middle), and Bax (bottom) antibodies. […]

[3] = target: T2, GFP-Bax (Homo sapiens, UniProt Q07812); assay: STS-induced GFP-Bax translocation to mitochondria in Cos7 cells (confocal microscopy); format: cell-based; settings: peptide transduced with Chariot, 1 μM STS
T2 construct: expressed in transfected cells; host or cells: Cos-7
T2 sequence (Q07812 whole entry): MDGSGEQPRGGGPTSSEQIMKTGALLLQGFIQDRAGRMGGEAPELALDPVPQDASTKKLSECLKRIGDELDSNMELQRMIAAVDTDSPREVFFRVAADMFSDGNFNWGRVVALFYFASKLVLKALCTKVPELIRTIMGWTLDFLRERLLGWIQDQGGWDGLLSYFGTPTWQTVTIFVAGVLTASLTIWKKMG
Method: as §1

[4] = system: Bax; assay: Bax-induced lethality in yeast; format: cell-based, S. cerevisiae; settings: TAD-fusion polypeptide, galactose-induced Bax
[5] = target: T3, purified recombinant Bax (Homo sapiens, UniProt Q07812); assay: Isolated mitochondria: Bax association and cytochrome c release assay; format: biochemical; settings: 100 μM peptide preincubated with Bax, HCT116 mitochondria
T3 sequence (Q07812 whole entry): as above
Method: (A-B) Humanin peptide prevents STS-induced Bax translocation in vivo. Cos-7 cells were first transfected with GFP-Bax plasmids. After 24 hrs, untagged wild-type or C8P mutant Humanin peptides were introduced into cells using ChariotTM reagent, and 2 h later cells were treated with 1 μM STS. After 4 h, the percentage of cells with translocated Bax was determined (mean±SD; n=3) by confocal microscopy (A) and representative photomicrographs (B). (C) Wild-type or C8P mutant Humanin peptides were introduced into Cos7 cells using ChariotTM reagent. Cytosolic (C) and mitochondria-containing (M) fractions were isolated by differential centrifugation 23 and analyzed by immunoblotting using anti-Bax (top), Hsp60 (middle) (mitochondrial marker), or Tubulin (bottom) (cytosol marker) antibodies. (D) HN or mutant control double-strand siRNAs were transfected into SF268 cells. After 48 h, cells were cultured without (Control) or with 0.1 uM STS. After 24 hr, cells were fractionated and analyzed by immunoblotting as above. (E) Isolated mitochondria were mixed with 400 ng Bax protein, with or without preincubating Bax with 100 uM Humanin or Humanin(C8P) peptides for 10 min. After 3 h at 30° C., mitochondria were centrifuged and the resulting pellets (P) and supernatants (S) were analyzed by immunoblotting using anti-Cytochrome c (top), Hsp60 (middle), and Bax (bottom) antibodies. (F) HN peptide enforces the interaction of Bax TM domain with Bax.TM. Lysates from HEK293T cells expressing Flag-Bax.TM were pretreated with or without Humanin or Humanin(C8P) peptides. Lysates were then mixed in vitro with lysates of HEK293T cells expressing GFP-TM(Bax). Immunoprecipitations were performed with anti-Flag antibody, analyzing lysates and immunoprecipitates (IP) by immunoblotting using monoclonal anti-GFP antibody.
To determine whether Humanin can act directly on Bax, the effects of Humanin on isolated mitochondria were tested. Addition of recombinant purified Bax protein to mitochondria in vitro induces cytochrome c release (Jurgensmeier et al., Proc. Natl. Acad. Sci. USA 95:4997-5002 (1998)). […] Therefore Humanin can directly suppress Bax targeting to mitochondria, without requirement for intact cells.
Cytochrome c release assays were performed as follows. Mitochondria were isolated from HCT116 cells by differential centrifugation as described above. Purified recombinant human Bax protein (400 ng for each sample) was pre-incubated with or without 100 μM synthetic Humanin peptide or mutant Humanin (C8P) peptide for 10 min at 4° C. The untreated or peptide pre-treated Baxprotein samples were then mixed with equal amount of HCT116 mitochondria (in a volume of 40 μl) at 30° C. for 3 hours. […]

[6] = system: endogenous Bax protein; assay: Subcellular fractionation and immunoblot of endogenous Bax after STS; format: cell-based; settings: Cos7 cells, untagged peptides, STS
Method: as §1, with “(E) Isolated mitochondria were mixed with 400 ng Bax protein, with or without preincubating Bax with 100 uM Humanin or Humanin(C8P) peptides for 10 min.” left out
These findings were also confirmed by subcellular fractionation, where cytosol and mitochondria-enriched heavy membrane preparations were prepared from Cos7 cells transduced with untagged Humanin or Humanin(C8P) peptides, and the relative amounts of endogenous Bax protein in these two fractions were measured by immunoblot analysis of samples normalized for cell-equivalents. […] Differences in the relative potency of Humanin at blocking Bax translocation as measured by microscopy (FIG. 7A) versus cell fractionation methods (FIG. 7C) can be explained by differences in the sensitivity of the assays, or could possibly indicate that even in cells where some Bax translocation has occurred, less of the total Bax protein associated with mitochondria. […]

[7] = target: T3, purified recombinant Bax; assay: Fluorescence polarization assay (FPA) of rhodamine-labelled peptide binding to Bax; set-up: full-length Bax protein was produced in bacteria and purified; made in house; host or cells: E. coli BL21; settings: rhodamine-labelled control peptides
Method: (C) The affinity (Kd) of Bax/HN interaction was measured by fluorescence polarization assay, using various concentrations of purified recombinant Bax and 40 nM rhodamine-conjugated HN peptide. Control peptide from CD40 is also shown (mean +Std Dev; n=3).
In this example, the in vitro binding assay is a fluorescence polarization assay (FPA). For this experiment, full-length Bax protein was produced in bacteria and purified. Various concentrations of Bax protein were incubated with 40 nM of rhodamine-conjugated synthetic purified Humanin peptide. The extent of peptide binding was then monitored by measuring polarization of monochromatic light passed through the sample, where peptide binding to the bulkier protein slows the rate of peptide tumbling in solution, enhancing the polarization effect.
Fluorescence Polarization Assays were performed as follows. Recombinant Bax protein was isolated from E. coli BL21 harboring pTYB1-Bax essentially as described (Suzuki et al., Cell 103:645-654 (2000)). For fluorescence polarization assays (FPA), various concentrations of Bax protein were incubated with 40 nM of rhodamine-conjugated synthetic purified Humanin peptide dissolved in water for 30 minutes in dark. Fluorescence polarization was measured using an AnalystTM AD Assay Detection System (LJL Biosystem, Sunnyvale, Calif.).

Sequence of Bcl-XL (Q07817 whole entry, species assumed): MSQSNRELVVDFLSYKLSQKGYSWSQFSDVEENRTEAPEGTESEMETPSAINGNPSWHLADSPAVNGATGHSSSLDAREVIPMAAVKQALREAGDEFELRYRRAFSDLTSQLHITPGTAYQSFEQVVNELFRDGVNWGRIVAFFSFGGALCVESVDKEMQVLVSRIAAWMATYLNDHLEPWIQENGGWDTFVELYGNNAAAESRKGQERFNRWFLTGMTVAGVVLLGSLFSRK

CC[C@H](C)[C@H](NC(=O)[C@H](CCC(=O)O)NC(=O)[C@H](CO)NC(=O)[C@@H](NC(=O)[C@H](CC(C)C)NC(=O)[C@H](CC(C)C)NC(=O)[C@H](CC(C)C)NC(=O)[C@H](CC(C)C)NC(=O)[C@H](CS)NC(=O)[C@H](CO)NC(=O)[C@H](Cc1ccccc1)NC(=O)CNC(=O)[C@H](CCCNC(=N)N)NC(=O)[C@@H]1CCCN1C(=O)[C@H](C)NC(=O)[C@H](CCSC)NC(=O)CCCCCNC(=O)c1ccccc1-c1c2ccc(=[N+](CC)CC)cc-2oc2cc(N(CC)CC)ccc12)[C@@H](C)O)C(=O)N[C@@H](CC(=O)O)C(=O)N[C@@H](CC(C)C)C(=O)N1CCC[C@H]1C(=O)N[C@H](C(=O)N[C@@H](CCCCN)C(=O)N[C@@H](CCCNC(=N)N)C(=O)N[C@@H](CCCNC(=N)N)C(=O)N[C@@H](C)C(N)=O)C(C)C [rhodamine-HN]
binding to Bcl-XL in fluorescence polarization assay [1]: did not bind

Humanin(C8P): synthetic Humanin peptide (or TAD-fusion in yeast) with C8P mutation, non-Bax-binding (MAPRGFSPLLLLTSEIDLPVKRRA; UniProt Q8IVG9 1-24, looked up, variant C8P)
interaction of BaxΔTM with GFP-TM [2]: did not promote | suppression of GFP-Bax translocation [3]: not | rescue of yeast from Bax-induced lethality [4]: did not rescue | Bax association with mitochondria [5]: did not interfere | cytochrome c release [5]: did not interfere | Bax translocation by subcellular fractionation [6]: no effect

rhodamine-CD40: rhodamine-labelled control peptide from CD40 (residue 250P to 266G) (PVQETLHGCQPVTQEDG; also: rhodamine label; UniProt P25942 250-266, looked up, fragment)
interaction with Bax in fluorescence polarization assay [7]: did not display interactions
